Target: T1, human 5T4 (oncofetal glycoprotein 5T4, trophoblast cell surface antigen) (human, UniProt Q13641 32-420)
T1 construct: whole, on cells; also called h5T4; 5T4 antigen
T1 sequence (looked up): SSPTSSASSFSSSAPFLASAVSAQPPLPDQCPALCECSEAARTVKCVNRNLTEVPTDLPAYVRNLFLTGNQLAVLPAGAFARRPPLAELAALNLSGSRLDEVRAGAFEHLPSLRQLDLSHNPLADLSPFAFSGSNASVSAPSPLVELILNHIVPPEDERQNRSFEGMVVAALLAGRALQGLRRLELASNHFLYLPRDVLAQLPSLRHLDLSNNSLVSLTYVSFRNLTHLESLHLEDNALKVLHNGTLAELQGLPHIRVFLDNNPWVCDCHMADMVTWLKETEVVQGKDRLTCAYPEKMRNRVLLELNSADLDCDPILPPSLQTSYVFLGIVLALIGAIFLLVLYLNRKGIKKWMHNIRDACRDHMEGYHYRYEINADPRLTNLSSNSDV
Experiment: FACS: A9-h5T4 cells with B7.1/ScFv supernatant, then CTLA4-Ig, detected with FITC anti-mouse Ig
Experimental: After washing cells were incubated with CTLA4-Ig (Ancell) for 1 hour. After washing, bound CTLA4-Ig was detected using an FITC conjugated anti-mouse Ig (Dako).

B1: B7-1/ScFv fusion protein (leader sequence and extracellular domain of murine B7.1 fused via a flexible linker to the VH and VL of the murine Mab 5T4 specific … (other)
chain: VDEQLSKSVKDKVLLPCRYNSPHEDESEDRIYWQKHDKVVLSVIAGKLKVWPEYKNRTLYDNTTYSLIILGLVLSDRGTYSCVVQKKERGTYEVKHLALVKLSIKADFSTPNITESGNPSADTKRITCFASGGFPKPRFSWLENGRELPGINTTISQDPESELYTISSQLDFNTTRNHTIKCLIKYGDAHVSEDFTWEKPPEDPPDSKPGGGGSGGGGSGGGGTSEVQLQQSGPDLVKPGASVKISCKASGYSFTGYYMHWVKQSHGKSLEWIGRINPNNGVTLYNQKFKDKAILTVDKSSTTAYMELRSLTSEDSAVYYCARSTMITNYVMDYWGQVTSVTVSSGGGGSGGGGTGGGGSSIVMTQTPTFLLVSAGDRVTITCKASQSVSNDVAWYQQKPGQSPTLLISYTSSRYAGVPDRFIGSGYGTDFTFTISTLQAEDLAVYFCQQDYNSPPTFGGGTKLEIKR
notes: Tested as about 30-fold concentrated supernatant of transiently transfected 293T cells; also called B7/ScFv; OBM 233
B1: binds.
